Assay results taken from article PMC4003243 (The Journal of Cell Biology, 2014).
Where no end group is shown, it is not given here.

Biological target: His-tagged talin head (1–406 aa) (human, UniProt Q9Y490 1-406)
Assay: BLI

His-tagged talin head (1–406 aa), sequence (Q9Y490 1-406): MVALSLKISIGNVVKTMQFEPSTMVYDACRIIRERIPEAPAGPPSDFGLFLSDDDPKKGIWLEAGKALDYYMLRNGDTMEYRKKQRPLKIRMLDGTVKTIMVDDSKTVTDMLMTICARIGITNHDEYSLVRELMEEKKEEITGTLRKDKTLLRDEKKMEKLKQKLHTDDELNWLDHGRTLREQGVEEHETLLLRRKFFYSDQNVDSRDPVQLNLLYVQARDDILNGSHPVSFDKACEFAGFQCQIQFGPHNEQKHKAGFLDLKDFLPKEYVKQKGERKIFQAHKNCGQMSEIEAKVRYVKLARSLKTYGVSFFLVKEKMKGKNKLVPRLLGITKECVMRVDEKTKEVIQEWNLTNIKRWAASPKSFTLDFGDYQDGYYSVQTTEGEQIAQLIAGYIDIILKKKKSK

fold higher affinity over wild-type β3-tail [fold]	binding result	Binder
~20	–	KLLITIHDRKEFAKFEEERARAKWVENPLYKEATSTFTNITYRGT (domain or fragment, mouse, UniProt O54890 741-787, looked up, also: GST fusion) [GST–β3-tail, β3-VE chimera]
–	binds	KLLITIHDRKEFAKFEEERARAKWDTANNPLYKEATSTFTNITYRGT (domain or fragment, mouse, UniProt O54890 741-787, looked up, also: GST fusion) [GST–β3-tail (716–762 aa), wild type]
